The source of these data is patent publication US20170342155A1 (Amgen, published 2017).

The target in this test is T1, wild-type human CCR7 (pcDNA3.1 Neo-hCCR7, 20100121357) (human, UniProt P32248 25-378).
T1 construct: Expressed on transfected 293T, CHO AM1/D or HEK293T cells; also called huCCR7; CCR7 receptor
T1 sequence: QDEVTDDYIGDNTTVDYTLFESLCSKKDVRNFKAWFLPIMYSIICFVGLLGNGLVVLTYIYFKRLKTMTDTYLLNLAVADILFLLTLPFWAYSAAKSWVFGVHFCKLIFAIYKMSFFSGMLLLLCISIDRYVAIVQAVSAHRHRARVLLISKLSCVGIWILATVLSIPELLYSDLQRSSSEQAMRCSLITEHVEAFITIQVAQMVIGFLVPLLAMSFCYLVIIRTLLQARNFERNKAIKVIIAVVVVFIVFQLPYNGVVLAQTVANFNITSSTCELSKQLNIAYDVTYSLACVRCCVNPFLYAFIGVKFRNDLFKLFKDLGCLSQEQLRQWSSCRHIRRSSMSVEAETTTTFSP
The test is described as follows: hybridoma screening on cells expressing human CCR7.

B1: antibody 6E1.2 (antibody, human IgG2, lambda, V domains shown)
VH: QGQLVESGGGVVQPGRSLRLSCAASGFTFRSYGMHWVRQAPGKGLEWVAVIWYDGSKKYYADSVKGRFTISRDNSKNTLFLQMNSLRAEDTAVYYCARDGGIAAFLQDNWFDPWGQGTLVTVSS
VL: SYELTQPPSVSVSPGQTASITCSGNKLGDKYASWYHQKPGQSPVLVIYQDNKRPSGIPERFSGSNSGNTATLTISGTQTMDEADYFCQAWDRTVVFGGGTKLTVLG
notes: Human antibody from XenoMouse hybridoma; Light = 26 and heavy = 58 is inferred from the order of the listing
Turning to B1, the binding result is “binds”.
